{"source": "paper PMC9638933", "key": {"LigD": {"molecular_target": "LigD (UniProt P9WNV3 1-759)", "sequence (P9WNV3 whole entry)": "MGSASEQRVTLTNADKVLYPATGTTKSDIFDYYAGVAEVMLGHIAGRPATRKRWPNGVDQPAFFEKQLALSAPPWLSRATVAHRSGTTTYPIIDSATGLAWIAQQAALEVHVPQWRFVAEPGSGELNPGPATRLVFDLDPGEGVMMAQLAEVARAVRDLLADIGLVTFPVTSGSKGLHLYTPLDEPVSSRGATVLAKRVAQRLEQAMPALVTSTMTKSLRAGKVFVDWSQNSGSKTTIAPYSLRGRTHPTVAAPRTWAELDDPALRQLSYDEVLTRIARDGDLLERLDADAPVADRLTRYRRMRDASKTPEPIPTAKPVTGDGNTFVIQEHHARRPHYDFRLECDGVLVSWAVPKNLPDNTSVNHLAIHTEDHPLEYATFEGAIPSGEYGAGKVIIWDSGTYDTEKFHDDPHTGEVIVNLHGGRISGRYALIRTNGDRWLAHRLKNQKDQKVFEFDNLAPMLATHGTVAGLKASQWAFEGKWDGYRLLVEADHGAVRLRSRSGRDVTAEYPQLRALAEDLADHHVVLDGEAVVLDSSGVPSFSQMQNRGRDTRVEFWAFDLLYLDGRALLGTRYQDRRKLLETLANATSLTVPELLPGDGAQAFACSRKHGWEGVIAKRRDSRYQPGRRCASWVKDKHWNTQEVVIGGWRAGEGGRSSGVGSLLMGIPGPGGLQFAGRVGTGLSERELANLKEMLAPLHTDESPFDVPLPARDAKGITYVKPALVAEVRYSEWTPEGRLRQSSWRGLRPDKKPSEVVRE", "assay": "fluorescence polarization; EMSA: 50 mM Tris-HCl pH 8.0, 50 mM NaCl, 1 mM DTT, 5 mM MgCl2, 4% glycerol, 0.025 mg/ml BSA, 10 nM DNA, 30 C 20 min; FP: 10 mM Tris-HCl pH 8, 10 mM NaCl, 10% glycerol, 1 mM TCEP, 50 nM DNA, 30 C; ternary EMSA: 20 mM Tris-HCl pH 8.0, 5 mM MgCl2, 5% glycerol, 37 C; bridging: 20 mM Tris-HCl pH 7.5, 50 mM KCl, 5 mM EDTA, 1 mM DTT, 5% glycerol, 40 ug/ml BSA, room temperature", "details": "protein: recombinant; tags: His (Ni-NTA purified; pMCSG7); label: 5' 6-FAM on strand 1; blunt"}, "Kumin": {"molecular_target": "T1, Kumin (Mycobacterium tuberculosis, UniProt P9WKD9 1-259)", "T1 sequence": "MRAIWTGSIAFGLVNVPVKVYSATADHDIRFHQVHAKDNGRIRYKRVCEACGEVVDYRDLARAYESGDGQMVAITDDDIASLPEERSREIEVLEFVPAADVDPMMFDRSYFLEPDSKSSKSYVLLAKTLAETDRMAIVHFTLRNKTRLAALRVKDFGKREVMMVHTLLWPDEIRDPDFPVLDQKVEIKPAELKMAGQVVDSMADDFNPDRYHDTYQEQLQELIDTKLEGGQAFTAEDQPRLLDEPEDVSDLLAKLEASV", "assay": "EMSA; 5 mM Mg2+; EMSA: 50 mM Tris-HCl pH 8.0, 50 mM NaCl, 1 mM DTT, 5 mM MgCl2, 4% glycerol, 0.025 mg/ml BSA, 10 nM DNA, 30 C 20 min; FP: 10 mM Tris-HCl pH 8, 10 mM NaCl, 10% glycerol, 1 mM TCEP, 50 nM DNA, 30 C; ternary EMSA: 20 mM Tris-HCl pH 8.0, 5 mM MgCl2, 5% glycerol, 37 C; bridging: 20 mM Tris-HCl pH 7.5, 50 mM KCl, 5 mM EDTA, 1 mM DTT, 5% glycerol, 40 ug/ml BSA, room temperature", "details": "protein: recombinant; tags: His (Ni-NTA purified; pMCSG7); chain copies: 2; label: 5' 6-FAM on strand 1; blunt"}, "Kucore": {"molecular_target": "T2, Kucore (Mycobacterium tuberculosis, UniProt P9WKD9 1-238)", "T2 sequence": "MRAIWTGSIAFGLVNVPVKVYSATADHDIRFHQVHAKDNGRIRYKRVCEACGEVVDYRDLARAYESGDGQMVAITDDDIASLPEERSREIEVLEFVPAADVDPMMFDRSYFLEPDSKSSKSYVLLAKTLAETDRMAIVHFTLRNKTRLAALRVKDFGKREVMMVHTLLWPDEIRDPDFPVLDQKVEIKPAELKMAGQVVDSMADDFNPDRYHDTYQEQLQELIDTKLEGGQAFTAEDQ", "assay": "EMSA; 5 mM Mg2+; EMSA: 50 mM Tris-HCl pH 8.0, 50 mM NaCl, 1 mM DTT, 5 mM MgCl2, 4% glycerol, 0.025 mg/ml BSA, 10 nM DNA, 30 C 20 min; FP: 10 mM Tris-HCl pH 8, 10 mM NaCl, 10% glycerol, 1 mM TCEP, 50 nM DNA, 30 C; ternary EMSA: 20 mM Tris-HCl pH 8.0, 5 mM MgCl2, 5% glycerol, 37 C; bridging: 20 mM Tris-HCl pH 7.5, 50 mM KCl, 5 mM EDTA, 1 mM DTT, 5% glycerol, 40 ug/ml BSA, room temperature", "details": "protein: recombinant; tags: His (Ni-NTA purified; pMCSG7); chain copies: 2; label: 5' 6-FAM on strand 1; blunt"}, "Kumin;LIG": {"molecular_target": "Kumin;LIG (Mycobacterium …, UniProt P9WKD9;P9WNV3 1-259;454-759, |)", "sequence (P9WNV3 454-759, chain 2 of 2, one chain of several)": "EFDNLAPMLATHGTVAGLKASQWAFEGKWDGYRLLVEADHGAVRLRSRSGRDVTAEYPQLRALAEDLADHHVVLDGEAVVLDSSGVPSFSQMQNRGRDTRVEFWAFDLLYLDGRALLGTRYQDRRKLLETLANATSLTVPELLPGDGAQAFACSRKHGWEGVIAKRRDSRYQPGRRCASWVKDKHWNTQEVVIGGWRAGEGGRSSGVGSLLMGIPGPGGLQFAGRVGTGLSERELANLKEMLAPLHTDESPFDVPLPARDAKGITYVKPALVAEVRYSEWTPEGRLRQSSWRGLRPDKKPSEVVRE", "assay": "EMSA; supershift; EMSA: 50 mM Tris-HCl pH 8.0, 50 mM NaCl, 1 mM DTT, 5 mM MgCl2, 4% glycerol, 0.025 mg/ml BSA, 10 nM DNA, 30 C 20 min; FP: 10 mM Tris-HCl pH 8, 10 mM NaCl, 10% glycerol, 1 mM TCEP, 50 nM DNA, 30 C; ternary EMSA: 20 mM Tris-HCl pH 8.0, 5 mM MgCl2, 5% glycerol, 37 C; bridging: 20 mM Tris-HCl pH 7.5, 50 mM KCl, 5 mM EDTA, 1 mM DTT, 5% glycerol, 40 ug/ml BSA, room temperature", "details": "protein: recombinant;recombinant; tags: His (Ni-NTA purified; pMCSG7);His (Ni-NTA purified); chain copies: 2;1; label: 5' 6-FAM on strand 1; blunt"}, "KuWT;POL": {"molecular_target": "KuWT;POL (Mycobacterium …, UniProt P9WKD9;P9WNV3 1-273;1-287, |)", "sequence (P9WNV3 1-287, one chain of several)": "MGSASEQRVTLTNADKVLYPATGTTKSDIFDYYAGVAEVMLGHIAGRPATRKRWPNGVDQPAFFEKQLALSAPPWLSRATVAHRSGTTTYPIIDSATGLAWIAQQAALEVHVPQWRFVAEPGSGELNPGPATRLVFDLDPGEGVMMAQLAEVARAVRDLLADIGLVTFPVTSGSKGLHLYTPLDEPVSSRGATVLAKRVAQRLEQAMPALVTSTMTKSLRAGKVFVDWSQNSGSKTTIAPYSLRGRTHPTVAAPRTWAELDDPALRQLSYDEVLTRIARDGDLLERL", "assay": "EMSA; supershift; EMSA: 50 mM Tris-HCl pH 8.0, 50 mM NaCl, 1 mM DTT, 5 mM MgCl2, 4% glycerol, 0.025 mg/ml BSA, 10 nM DNA, 30 C 20 min; FP: 10 mM Tris-HCl pH 8, 10 mM NaCl, 10% glycerol, 1 mM TCEP, 50 nM DNA, 30 C; ternary EMSA: 20 mM Tris-HCl pH 8.0, 5 mM MgCl2, 5% glycerol, 37 C; bridging: 20 mM Tris-HCl pH 7.5, 50 mM KCl, 5 mM EDTA, 1 mM DTT, 5% glycerol, 40 ug/ml BSA, room temperature", "details": "protein: recombinant;recombinant; tags: His (Ni-NTA purified; pMCSG7);His (Ni-NTA purified); chain copies: 2;1; label: 5' 6-FAM on strand 1; blunt"}, "Kucore;POL": {"molecular_target": "Kucore;POL (Mycobacterium …, UniProt P9WKD9;P9WNV3 1-238;1-287, |)", "sequence (P9WNV3 1-287, chain 2 of 2, one chain of several)": "as the sequence (P9WNV3 1-287, one chain of several) above", "assay": "EMSA; supershift; EMSA: 50 mM Tris-HCl pH 8.0, 50 mM NaCl, 1 mM DTT, 5 mM MgCl2, 4% glycerol, 0.025 mg/ml BSA, 10 nM DNA, 30 C 20 min; FP: 10 mM Tris-HCl pH 8, 10 mM NaCl, 10% glycerol, 1 mM TCEP, 50 nM DNA, 30 C; ternary EMSA: 20 mM Tris-HCl pH 8.0, 5 mM MgCl2, 5% glycerol, 37 C; bridging: 20 mM Tris-HCl pH 7.5, 50 mM KCl, 5 mM EDTA, 1 mM DTT, 5% glycerol, 40 ug/ml BSA, room temperature", "details": "protein: recombinant;recombinant; tags: His (Ni-NTA purified; pMCSG7);His (Ni-NTA purified); chain copies: 2;1; label: 5' 6-FAM on strand 1; blunt"}}}
{"binder": "40 bp dsDNA (dsDNA) DNA 1: CAGGGTAAGTGTGGAGGTGTAGGGAAGGGAATGTTGTCTG DNA 2: CAGACAACATTCCCTTCCCTACACCTCCACACTTACCCTG", "values": [{"measurement": "Kd", "setting": "LigD", "result": "350 ± 30", "unit": "nM"}, {"measurement": "Kd", "setting": "Kumin", "result": "460 ± 80", "unit": "nM"}, {"measurement": "Kd", "setting": "Kucore", "result": "70 ± 10", "unit": "nM"}, {"measurement": "binding result", "setting": "Kumin;LIG", "result": "binds"}, {"measurement": "binding result", "setting": "KuWT;POL", "result": "binds"}, {"measurement": "binding result", "setting": "Kucore;POL", "result": "binds"}]}
